Test results from patent publication US20220380463A1 (Adimab, published 2022).
Where a chain is given by its changes, count along the chain named.

T1: Cynomolgus CD3εδ Fc heterodimer (Cy CD3ε Fc / CD3δ Fc-HIS) (cynomolgus, UniProt Q95LI8 22-100)
T1 chain 1: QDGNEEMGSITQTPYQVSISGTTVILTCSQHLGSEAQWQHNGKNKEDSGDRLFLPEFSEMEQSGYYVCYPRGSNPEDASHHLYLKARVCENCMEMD
T1 chain 2: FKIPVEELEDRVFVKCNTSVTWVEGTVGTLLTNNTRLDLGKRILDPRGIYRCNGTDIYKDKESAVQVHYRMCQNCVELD

B1: LAD5224_P03_A01 (ADI-26906) (antibody, V domains shown)
VH: QVQLVQSGAEVKKPGASVKVSCKASGFNIKDYYMHWVRQAPGQRLEWMGWIDLENANTIYDAKFQGRVTITRDTSASTAYMELSSLRSEDTAVYYCARDAYGRYFYDVWGQGTLVTVSS
VL: DIVMTQSPDSLAVSLGERATINCKSSQSLLNARTGKNYLAWYQQKPGQPPKLLIYWASTRESGVPDRFSGSGSGTDFTLTISSLQAEDVAVYYCKQSYSRRTFGGGTKVEIK
notes: IgG; also called Ab1; parent clone
B2: SAD10318_P01_A03 (ADI-48587) (antibody, V domains shown)
VH: B1 VH with A100H, G102H
VL: B1 VL with K36H, Y98H, R100H
notes: IgG; also called Ab36
B3: LAD9965_P01_H07 (ADI-48666) (antibody, V domains shown)
VH: B1 VH
VL: B1 VL with K36H
notes: IgG; also called Ab177
B4: SAD10318_P01_A02 (ADI-48581) (antibody, V domains shown)
VH: B1 VH with G102H, R103H
VL: B1 VL with G35H, Y38H, S99H, R100H
notes: IgG; also called Ab237
B5: SAD10319_P05_E04 (ADI-57411) (antibody, V domains shown)
VH: QVQLVQSGAEVKKPGASVKVSCKASGYTFTGYEMHWVRQAPGQRLEWMGWINPSTGNTVYSQKFQGRVTITRDTSASTAYMELSSLRSEDTAVYYCARDHYGHYFYDVWGQGTLVTVSS
VL: B1 VL
notes: IgG; also called Ab139
B6: SAD10319_P05_H06 (ADI-57417) (antibody, V domains shown)
VH: QVQLVQSGAEVKKPGASVKVSCKASGYTFTEYDMHWVRQAPGPTLEWMGWIDAGTGATVYSQKFQGRVTITRDTSASTAYMELSSLRSEDTAVYYCARDAYGRYFYDHWGQGTLVTVSS
VL: B1 VL
notes: IgG; also called Ab145
B7: SAD10319_P06_C12 (ADI-57424) (antibody, V domains shown)
VH: B5 VH with T30D, G31S, Q43H, S54L, N57A, V59K
VL: B1 VL
notes: IgG; also called Ab153
B8: SAD10319_P06_E09 (ADI-57427) (antibody, V domains shown)
VH: B5 VH with G31A, E33D, S54D, N57A, H100A, H103R
VL: B1 VL
notes: IgG; also called Ab156
B9: SAD10319_P06_E10 (ADI-57428) (antibody, V domains shown)
VH: B6 VH with E31Q, P43Q, W50D, D52N, A57V, H108V
VL: B1 VL
notes: IgG; also called Ab157
B10: SAD10319_P06_B11 (ADI-57422) (antibody, V domains shown)
VH: B6 VH with T30H, E31S, P43Q, T44R, V59T, R103H, H108V
VL: B1 VL
notes: IgG; also called Ab151
B11: SAD10319_P06_H11 (ADI-57436) (antibody, V domains shown)
VH: B6 VH with E31D, P43H, T44R, D52N, T55D, G56A, R103H
VL: B1 VL
notes: IgG; also called Ab166
B12: SAD10319_P06_C10 (ADI-57423) (antibody, V domains shown)
VH: B6 VH with D33V, T44R, W50D, V59K, G102H, R103H, H108V
VL: B1 VL
notes: IgG; also called Ab152
B13: SAD10319_P06_F07 (ADI-57429) (antibody, V domains shown)
VH: B6 VH with T30E, E31S, P43Q, T44P, V59T, G102H, R103H, H108V
VL: B1 VL
notes: IgG; also called Ab159
B14: SAD10319_P06_D12 (ADI-57425) (antibody, V domains shown)
VH: QVQLVQSGAEVKKPGASVKVSCKASGYTFNRYVMHWVRQAPGQRLEWMGGIDAGTGATKYSQKFQGRVTITRDTSASTAYMELSSLRSEDTAVYYCARDAHRHYFYDVWGQGTLVTVSS
VL: B1 VL
B15: SAD10319_P06_G11 (ADI-57432) (antibody, V domains shown)
VH: B6 VH with E31D, P43Q, T44R, D52N, T55D, G56A, R103H
VL: B1 VL
notes: IgG; also called Ab162
B16: SAD10319_P06_H08 (ADI-57434) (antibody, V domains shown)
VH: B6 VH with T30E, E31S, P43Q, V59T, G102H, R103H, H108V
VL: B1 VL
notes: IgG; also called Ab164
B17: SAD10319_P06_E08 (ADI-57426) (antibody, V domains shown)
VH: B14 VH with N30I, R31K, G50D, A53P, G54D, K59E, A100D, H101Y, R102H
VL: B1 VL
notes: IgG; also called Ab155
B18: SAD10319_P06_F10 (ADI-57430) (antibody, V domains shown)
VH: B6 VH with T30V, E31S, T44S, A53P, G54N, A100H, R103H, H108V
VL: B1 VL
notes: IgG; also called Ab160
B19: SAD10319_P05_G01 (ADI-57413) (antibody, V domains shown)
VH: B14 VH with R31N, V33A, R44S, G50W, A57N, K59D, R102H, H103R
VL: B1 VL
B20: SAD10319_P06_G09 (ADI-57431) (antibody, V domains shown)
VH: B6 VH with T30E, E31S, T44R, V59T, G102H, R103H, H108V
VL: B1 VL
notes: IgG; also called Ab161
B21: SAD10319_P06_B10 (ADI-57421) (antibody, V domains shown)
VH: B14 VH with N30T, R31E, G50D, H101Y, R102H
VL: B1 VL
notes: IgG; also called Ab150
B22: SAD10319_P06_A10 (ADI-57419) (antibody, V domains shown)
VH: B5 VH with S54V, N57A, V59A, H100A, V108H
VL: B1 VL
notes: IgG; also called Ab148
B23: SAD10319_P05_G03 (ADI-57415) (antibody, V domains shown)
VH: B5 VH with T30H, G31S, E33N, Q43H, S54D, N57A, V59D, H100A, H103R
VL: B1 VL
notes: IgG; also called Ab143
B24: SAD10319_P06_H07 (ADI-57433) (antibody, V domains shown)
VH: B5 VH with T30V, G31S, E33N, W50S, P53A, S54G, T55D, G56A, V59K
VL: B1 VL
notes: IgG; also called Ab163
B25: SAD10319_P06_H10 (ADI-57435) (antibody, V domains shown)
VH: QVQLVQSGAEVKKPGASVKVSCKASGYTFESYDMHWVRQAPGPRLEWMGWIDAGTGNTKYSQKFQGRVTITADESTSTAYMELSSLRSEDTAVYYCARDHYGHYFYDVWGQGTLVTVSS
VL: B1 VL
notes: IgG; also called Ab165
B26: LAD9956_P01_C03 (ADI-57440) (antibody, V domains shown)
VH: B1 VH
VL: B1 VL with R33H, G35H
notes: IgG; also called Ab171
B27: SAD10319_P05_G04 (ADI-57416) (antibody, V domains shown)
VH: B6 VH with E31S, D33G, P43Q, T44R, A53P, G54V, V59D, Y101H
VL: B1 VL
notes: IgG; also called Ab144
B28: SAD10319_P05_G02 (ADI-57414) (antibody, V domains shown)
VH: B5 VH with G31T, E33A, N52D, S54V, V59K, H103R, V108H
VL: B1 VL
notes: IgG; also called Ab142
B29: LAD9966_P01_A08 (ADI-57445) (antibody, V domains shown)
VH: B1 VH
VL: B1 VL with Y38H
notes: IgG; also called Ab176
B30: SAD10319_P06_A11 (ADI-57420) (antibody, V domains shown)
VH: B5 VH with T30D, G31S, Y32I, E33A, S54A, V59D, H100A, V108H
VL: B1 VL
notes: IgG; also called Ab149
B31: SAD10319_P05_F01 (ADI-57412) (antibody, V domains shown)
VH: B6 VH with E31D, Y32D, D33A, P43Q, T44S, A57N, V59Y, R98H, R103H, H108V
VL: B1 VL
notes: IgG; also called Ab140
B32: LAD9963_P01_E06 (ADI-57443) (antibody, V domains shown)
VH: B1 VH
VL: B1 VL with R33H

Target: T2, human CD3 on CD3+ Jurkat cells (human, UniProt P07766 23-207)
T2 construct: whole, on cells; Native CD3 complex on cells; the other CD3 chains are not specified for this assay; also called Human CD3+ Jurkat
Assay: flow cytometry, 100 nM IgG on CD3+ Jurkat cells, pH 7.4
Procedure: (§1) Specificity of the anti-CD3 antibodies for human CD3+ Jurkat cells compared to CHO-S cells at pH 6.0 and 7.4 was determined using a FACS cell binding assay. Briefly, CD3+ human Jurkat cells and CHO-S cells were thawed and washed with cold PBSF buffer, pH 7.4 (PBS+0.1% BSA, pH 7.4). About 200,000 cells were aliquoted per well of a 96-well plate and pelleted by centrifugation (5 minutes at 500×g). The cells were washed with either PBSF pH 7.4 or PBSF pH 6.0 (PBS+0.1% BSA, pH 6.0), and then resuspended in 100 ul in either PBSF pH 7.4 or PBSF pH 6.0 with IgG antibody produced in yeast (100 nM). The mixture (cells+antibody) was incubated for 20 minutes on ice, then washed twice with either PBSF pH 7.4 or PBSF pH 6.0. Cells were resuspended in 50 ul of propidium iodide (1:500 dilution) and anti-human IgG-RPE (1:100 dilution) prepared in either PBSF pH 7.4 or PBSF pH 6.0, then incubated for 20 minutes on ice in the dark before cells were washed twice with either PBSF pH 7.4 or PBSF pH 6.0. Binding was analyzed on FACS Canto II.
(§2) Cell binding assays. CD3+ human Jurkat cells (ATCC) and CHO-S cells (Invitrogen/ThermoFisher) were thawed and washed with cold PBSF buffer, pH 7.4 (PBS+0.1% BSA, pH 7.4). About 200,000 cells were aliquoted per well of a 96-well plate (FACS Assay Plate VWR BD 353263) and pelleted by centrifugation (5 minutes at 500×g). The cells were washed with either PBSF pH 7.4 or PBSF pH 6.0 (PBS+0.1% BSA, pH 6.0), and then resuspended in 100 ul in either PBSF pH 7.4 or PBSF pH 6.0 with IgG antibody (100 nM) produced in yeast as described above. The mixture (cells+antibody) was incubated for 20 minutes on ice, then washed twice with either PBSF pH 7.4 or PBSF pH 6.0. Cells were resuspended in 50 ul of propidium iodide (Roche; 1:500 dilution) and anti-human IgG-RPE (Southern Biotech; 1:100 dilution) prepared in either PBSF pH 7.4 or PBSF pH 6.0, then incubated for 20 minutes on ice in the dark before cells were washed twice with either PBSF pH 7.4 or PBSF pH 6.0. Binding was analyzed on FACS Canto II.

T2 sequence (P07766 23-207): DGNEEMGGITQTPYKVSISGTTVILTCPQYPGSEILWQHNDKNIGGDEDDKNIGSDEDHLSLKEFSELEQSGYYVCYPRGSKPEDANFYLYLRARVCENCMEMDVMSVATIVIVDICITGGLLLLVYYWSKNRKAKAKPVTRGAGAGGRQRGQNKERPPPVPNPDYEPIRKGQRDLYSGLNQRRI

| MFI pH 7.4 [MFI] | Binder |
| --- | --- |
| 5270 | B1 |
| 66 | B2 |
| 4800 | B3 |
| 38 | B4 |

Target: T1, Cynomolgus CD3εδ Fc heterodimer (Cy …)
Assay: BLI (Octet), IgG on AHC sensor, pH 6.0

| koff [s⁻¹] | Binder |
| --- | --- |
| 0.00373 | B5 |
| 0.0104 | B6 |
| 0.00756 | B7 |
| 0.0122 | B8 |
| 0.00575 | B9 |
| 0.0101 | B10 |
| 0.0285 | B11 |
| 0.00318 | B12 |
| 0.0251 | B13 |
| 0.0192 | B14 |
| 0.00924 | B15 |
| 0.0231 | B16 |
| 0.0105 | B17 |
| 0.00663 | B18 |
| 0.0236 | B19 |
| 0.00258 | B20 |
| 0.002 | B21 |
| 0.0246 | B22 |
| 0.0167 | B23 |
| 0.00901 | B24 |
| 0.0267 | B25 |
| 0.000913 | B26 |
| 0.00389 | B27 |
| 0.0156 | B28 |
| 0.0035 | B29 |
| 0.00279 | B30 |
| 0.0214 | B31 |
| 0.000866 | B32 |

Target: T2, human CD3 on CD3+ Jurkat cells
Assay: flow cytometry, 100 nM IgG on CD3+ Jurkat cells, pH 6.0
Procedure: as §1, §2

| MFI pH 6.0 [MFI] | Binder |
| --- | --- |
| 6040 | B1 |
| 5120 | B2 |
| 5700 | B3 |
| 1730 | B4 |

Target: T2, human CD3 on CD3+ Jurkat cells
Assay: flow cytometry on CD3+ Jurkat cells, ratio of MFI at pH 6.0 to pH 7.4
Procedure: as §1, §2

| MFI pH 6.0/MFI pH 7.4 | Binder |
| --- | --- |
| 1.1 | B1 |
| 77.1 | B2 |
| 1.2 | B3 |
| 45.5 | B4 |
